# Data reported in article PMC5717350, “The human CTF4-orthologue AND-1 interacts with DNA polymerase α/primase via its unique C-terminal HMG box” (Open Biology, 2017).
# T1: GST-BNTD (1–78) A47E (human, UniProt Q14181 1-78, A47E)
# T1 construct: human DNA polymerase α B subunit, residues 1-78; also called A47E mutant GST-BNTD; source: E. coli Rosetta2(DE3), purified (Ni-NTA agarose)
# T1 sequence (looked up): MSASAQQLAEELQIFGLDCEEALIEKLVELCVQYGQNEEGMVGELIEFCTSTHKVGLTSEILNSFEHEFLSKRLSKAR
# T2: GST-BNTD (B subunit amino acids 1–78) (human, UniProt Q14181 1-78)
# T2 construct: human DNA polymerase α B subunit, residues 1-78 (four-helix bundle N-terminal domain); also called GST-B(1–78); B N-terminal domain; source: E. coli Rosetta2(DE3), purified (Ni-NTA agarose)
# T2 sequence (looked up): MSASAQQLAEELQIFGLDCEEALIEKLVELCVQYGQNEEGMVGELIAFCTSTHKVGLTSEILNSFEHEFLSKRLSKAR
# B1: GST-B subunit (1–156) (domain or fragment, human, UniProt Q14181 1-156, looked up)
# chain: MSASAQQLAEELQIFGLDCEEALIEKLVELCVQYGQNEEGMVGELIAFCTSTHKVGLTSEILNSFEHEFLSKRLSKARHSTCKDSGHAGARDIVSIQELIEVEEEEEILLNSYTTPSKGSQKRAISTPETPLTKRSVSTRSPHQLLSPSSFSPSAT
# notes: human DNA polymerase α B subunit, residues 1-156; also called GST-B fusion protein 1–156; source: E. coli Rosetta2(DE3), purified (Ni-NTA agarose)
# B2: B (1–78), free BNTD used as competitor (domain or fragment, human, UniProt Q14181 1-78, looked up)
# chain: MSASAQQLAEELQIFGLDCEEALIEKLVELCVQYGQNEEGMVGELIAFCTSTHKVGLTSEILNSFEHEFLSKRLSKAR
# notes: human DNA polymerase α B subunit, residues 1-78; it names the protein 'B (1–78)' and 'free BNTD'; also called purified BNTD; source: E. coli Rosetta2(DE3), purified
# B3: Full-length His10-myc-tagged AND-1 (1–1129) (natural protein, human, UniProt O75717 1-1129, looked up)
# chain: MPATRKPMRYGHTEGHTEVCFDDSGSFIVTCGSDGDVRIWEDLDDDDPKFINVGEKAYSCALKSGKLVTAVSNNTIQVHTFPEGVPDGILTRFTTNANHVVFNGDGTKIAAGSSDFLVKIVDVMDSSQQKTFRGHDAPVLSLSFDPKDIFLASASCDGSVRVWQISDQTCAISWPLLQKCNDVINAKSICRLAWQPKSGKLLAIPVEKSVKLYRRESWSHQFDLSDNFISQTLNIVTWSPCGQYLAAGSINGLIIVWNVETKDCMERVKHEKGYAICGLAWHPTCGRISYTDAEGNLGLLENVCDPSGKTSSSKVSSRVEKDYNDLFDGDDMSNAGDFLNDNAVEIPSFSKGIINDDEDDEDLMMASGRPRQRSHILEDDENSVDISMLKTGSSLLKEEEEDGQEGSIHNLPLVTSQRPFYDGPMPTPRQKPFQSGSTPLHLTHRFMVWNSIGIIRCYNDEQDNAIDVEFHDTSIHHATHLSNTLNYTIADLSHEAILLACESTDELASKLHCLHFSSWDSSKEWIIDLPQNEDIEAICLGQGWAAAATSALLLRLFTIGGVQKEVFSLAGPVVSMAGHGEQLFIVYHRGTGFDGDQCLGVQLLELGKKKKQILHGDPLPLTRKSYLAWIGFSAEGTPCYVDSEGIVRMLNRGLGNTWTPICNTREHCKGKSDHYWVVGIHENPQQLRCIPCKGSRFPPTLPRPAVAILSFKLPYCQIATEKGQMEEQFWRSVIFHNHLDYLAKNGYEYEESTKNQATKEQQELLMKMLALSCKLEREFRCVELADLMTQNAVNLAIKYASRSRKLILAQKLSELAVEKAAELTATQVEEEEEEEDFRKKLNAGYSNTATEWSQPRFRNQVEEDAEDSGEADDEEKPEIHKPGQNSFSKSTNSSDVSAKSGAVTFSSQGRVNPFKVSASSKEPAMSMNSARSTNILDNMGKSSKKSTALSRTTNNEKSPIIKPLIPKPKPKQASAASYFQKRNSQTNKTEEVKEENLKNVLSETPAICPPQNTENQRPKTGFQMWLEENRSNILSDNPDFSDEADIIKEGMIRFRVLSTEERKVWANKAKGETASEGTEAKKRKRVVDESDETENQEEKAKENLNLSKKQKPLDFSTNQKLSAFAFKQE
# notes: the oligomeric state was measured only on the SepB constructs; also called His-myc-AND-1; human CTF4-orthologue AND-1; source: Sf9 insect cells (baculovirus, MultiBac), purified (Ni-NTA, Q-Sepharose)
# B4: MBP-tagged AND-1 HMG box (1017–1076), wild type (domain or fragment, human, UniProt O75717 1017-1076, looked up)
# chain: RPKTGFQMWLEENRSNILSDNPDFSDEADIIKEGMIRFRVLSTEERKVWANKAKGETASE
# notes: human AND-1 HMG box, residues 1017-1076; also called AND-1(1017–1076); source: E. coli Rosetta2(DE3), purified (Ni-NTA, Superdex 200)
# B5: GST-B subunit (1–104) (domain or fragment, human, UniProt Q14181 1-104, looked up)
# chain: MSASAQQLAEELQIFGLDCEEALIEKLVELCVQYGQNEEGMVGELIAFCTSTHKVGLTSEILNSFEHEFLSKRLSKARHSTCKDSGHAGARDIVSIQELIEVEE
# notes: human DNA polymerase α B subunit, residues 1-104; also called GST-B fusion protein 1–104; source: E. coli Rosetta2(DE3), purified (Ni-NTA agarose)
# B6: AND-1 (329–826), SepB domain (domain or fragment, human, UniProt O75717 329-826, looked up)
# chain: GDDMSNAGDFLNDNAVEIPSFSKGIINDDEDDEDLMMASGRPRQRSHILEDDENSVDISMLKTGSSLLKEEEEDGQEGSIHNLPLVTSQRPFYDGPMPTPRQKPFQSGSTPLHLTHRFMVWNSIGIIRCYNDEQDNAIDVEFHDTSIHHATHLSNTLNYTIADLSHEAILLACESTDELASKLHCLHFSSWDSSKEWIIDLPQNEDIEAICLGQGWAAAATSALLLRLFTIGGVQKEVFSLAGPVVSMAGHGEQLFIVYHRGTGFDGDQCLGVQLLELGKKKKQILHGDPLPLTRKSYLAWIGFSAEGTPCYVDSEGIVRMLNRGLGNTWTPICNTREHCKGKSDHYWVVGIHENPQQLRCIPCKGSRFPPTLPRPAVAILSFKLPYCQIATEKGQMEEQFWRSVIFHNHLDYLAKNGYEYEESTKNQATKEQQELLMKMLALSCKLEREFRCVELADLMTQNAVNLAIKYASRSRKLILAQKLSELAVEKAAELTAT
# notes: human AND-1, residues 329-826 (SepB domain); residues 329-420 and 824-826 not in the final crystallographic model; Trimer arises from crystallographic symmetry (one protomer per asymmetric unit); also called AND-1 SepB
# Columns and labels:
# [1] = target: B3; assay: pull-down; GST-B fusion proteins (in figure 6a also GST-Pol α CIP, equimolar) bound to 100 µl glutathione agarose, 2.2 nmol AND-1 (1–1129, 316–1129 or 336–826) added as prey; PD buffer, 2.5 mg/ml BSA, 4°C; Coomassie, anti-His western blot in figure 6a; conditions: both partners purified
# [2] = target: B3; assay: pull-down; competition: Pol α/primase bound to 100 µl Strep-Tactin Superflow resin, 1 nmol AND-1 added together with 100 nmol B (1–78) or Pol α CIP peptide 156–170; eluted with 10 mM desthiobiotin; Coomassie and anti-His western blot; conditions: both partners purified
# [3] = target: T3, Pol α/primase, full-length heterotetrameric complex (Polα-B-PriS-PriL) (human, UniProt P09884 1-1462; Q14181 1-598; P49642 1-420; P49643 1-509); assay: pull-down; StrepII-tagged Pol α/primase bound to 100 µl Strep-Tactin Superflow resin, about 2.4 nmol AND-1 added as prey; PD buffer (PBS, 5% glycerol, 0.5 mM TCEP, 0.2% Igepal), 2.5 mg/ml BSA, 4°C; eluted with 10 mM desthiobiotin; Coomassie and anti-His western blot; conditions: both partners purified
# T3 construct: human DNA polymerase α catalytic subunit, residues 1-1462; human DNA polymerase α B subunit, residues 1-598; human primase small subunit PriS, residues 1-420; human primase large subunit PriL, residues 1-509; The wording 'Double StrepII-tagged human DNA polymerase α (1–1462) and its B subunit (1–598)' leaves open whether the B subunit is tagged too; the tag is written on Pol α only; also called …
# T3 sequence (P09884 whole entry, chain 1 of 3, the tested form may be a part): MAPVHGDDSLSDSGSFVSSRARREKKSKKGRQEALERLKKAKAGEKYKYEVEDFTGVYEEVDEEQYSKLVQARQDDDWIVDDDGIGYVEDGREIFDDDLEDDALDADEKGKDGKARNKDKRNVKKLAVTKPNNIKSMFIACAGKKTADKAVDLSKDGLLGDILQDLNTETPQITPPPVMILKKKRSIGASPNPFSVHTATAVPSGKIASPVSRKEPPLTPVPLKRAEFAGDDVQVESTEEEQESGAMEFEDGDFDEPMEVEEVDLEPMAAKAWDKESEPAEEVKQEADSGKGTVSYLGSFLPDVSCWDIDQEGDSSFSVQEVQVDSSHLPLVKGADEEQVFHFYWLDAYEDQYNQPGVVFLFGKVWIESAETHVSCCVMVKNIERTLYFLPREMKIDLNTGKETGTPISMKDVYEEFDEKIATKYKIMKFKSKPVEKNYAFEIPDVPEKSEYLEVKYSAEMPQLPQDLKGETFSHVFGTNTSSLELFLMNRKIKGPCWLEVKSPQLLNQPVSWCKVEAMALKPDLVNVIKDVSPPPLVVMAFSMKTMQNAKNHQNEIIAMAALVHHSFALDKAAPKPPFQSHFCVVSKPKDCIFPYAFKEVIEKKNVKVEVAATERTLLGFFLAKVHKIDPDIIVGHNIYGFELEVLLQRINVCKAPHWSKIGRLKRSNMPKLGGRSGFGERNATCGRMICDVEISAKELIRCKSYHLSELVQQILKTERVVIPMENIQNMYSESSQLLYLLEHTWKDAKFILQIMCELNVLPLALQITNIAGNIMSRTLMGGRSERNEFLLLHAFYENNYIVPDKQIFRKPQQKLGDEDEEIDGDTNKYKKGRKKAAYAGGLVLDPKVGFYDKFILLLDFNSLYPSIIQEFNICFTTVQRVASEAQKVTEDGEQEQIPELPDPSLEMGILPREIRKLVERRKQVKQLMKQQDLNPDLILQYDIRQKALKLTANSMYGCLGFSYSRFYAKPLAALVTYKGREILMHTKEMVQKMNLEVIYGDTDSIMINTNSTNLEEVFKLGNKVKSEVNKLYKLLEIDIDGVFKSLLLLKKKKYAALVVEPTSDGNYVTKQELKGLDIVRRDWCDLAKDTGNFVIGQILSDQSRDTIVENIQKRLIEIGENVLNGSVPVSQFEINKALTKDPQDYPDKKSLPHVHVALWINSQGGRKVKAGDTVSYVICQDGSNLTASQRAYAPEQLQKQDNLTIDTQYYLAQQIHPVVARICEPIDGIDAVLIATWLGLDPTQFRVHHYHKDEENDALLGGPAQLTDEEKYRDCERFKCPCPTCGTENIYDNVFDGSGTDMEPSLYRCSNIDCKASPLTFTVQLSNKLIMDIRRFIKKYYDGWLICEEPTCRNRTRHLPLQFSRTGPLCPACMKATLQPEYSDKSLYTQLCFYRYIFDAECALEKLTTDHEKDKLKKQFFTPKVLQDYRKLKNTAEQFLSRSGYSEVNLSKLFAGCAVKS
# T3 sequence (P49642 whole entry, chain 3 of 3, the tested form may be a part): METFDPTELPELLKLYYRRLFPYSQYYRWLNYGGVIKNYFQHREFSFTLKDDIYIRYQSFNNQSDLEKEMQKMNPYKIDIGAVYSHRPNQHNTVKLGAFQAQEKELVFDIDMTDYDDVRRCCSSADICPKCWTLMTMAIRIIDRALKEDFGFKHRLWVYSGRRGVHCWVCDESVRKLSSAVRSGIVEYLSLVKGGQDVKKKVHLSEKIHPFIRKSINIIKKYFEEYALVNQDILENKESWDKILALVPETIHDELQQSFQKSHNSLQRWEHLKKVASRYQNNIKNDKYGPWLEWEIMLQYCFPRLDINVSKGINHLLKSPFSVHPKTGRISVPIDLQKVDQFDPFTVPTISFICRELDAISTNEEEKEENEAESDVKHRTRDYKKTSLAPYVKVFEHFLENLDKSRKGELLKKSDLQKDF
# T3 sequence (P49643 whole entry, chain 4 of 3, the tested form may be a part): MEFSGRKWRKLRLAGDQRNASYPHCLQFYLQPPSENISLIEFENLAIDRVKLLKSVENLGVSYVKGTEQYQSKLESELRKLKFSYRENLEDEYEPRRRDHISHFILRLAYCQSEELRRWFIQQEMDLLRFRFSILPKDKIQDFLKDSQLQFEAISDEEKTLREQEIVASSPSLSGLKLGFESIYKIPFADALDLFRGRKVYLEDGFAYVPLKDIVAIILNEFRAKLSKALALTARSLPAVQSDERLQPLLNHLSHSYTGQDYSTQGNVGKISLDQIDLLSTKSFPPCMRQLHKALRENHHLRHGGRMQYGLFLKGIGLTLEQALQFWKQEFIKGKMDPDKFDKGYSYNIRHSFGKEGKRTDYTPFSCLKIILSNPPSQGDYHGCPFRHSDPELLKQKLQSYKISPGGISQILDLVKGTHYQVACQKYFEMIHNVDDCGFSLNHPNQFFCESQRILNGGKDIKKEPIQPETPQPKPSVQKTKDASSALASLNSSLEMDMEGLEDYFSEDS
# GST-BNTD (1–78) A47E = target: T1, GST-BNTD (1–78) A47E; assay: pull-down; MBP-AND-1 constructs bound to 100 µl amylose resin, 25 nmol GST-B added as prey; PD buffer, 2.5 mg/ml BSA, 4°C; eluted with 20 mM maltose; Coomassie; conditions: both partners purified
# [4] = target: T2, GST-BNTD (B subunit amino acids 1–78); assay: as above; conditions: both partners purified
# [5] = target: the molecule itself; assay: crystal structure; AND-1 329–826 crystallised at 9 mg/ml; space group F432, one protomer per asymmetric unit, trimer by crystallographic symmetry; 2.5 Å
binder,measurement,setting,value
B1,binding result,[1],binds
B2,binding result,[2],binds
B3,binding result,[3],binds
B4,binding result,GST-BNTD (1–78) A47E,binds
same,binding result,[4],binds
B5,binding result,[1],binds
B6,binding result,[5],binds
